Biological target: the molecule itself
Assay: TEM, SEM, AFM, CD and FTIR of the assembled peptide; peptide assembled in 40% acetonitrile/water with 0.1% TFA for a month

B1: Ac-KLVFFAL-CONH2 (peptide)
peptide: Ac-KLVFFAL-NH2
notes: also called Ac-KL nanotubes; amylobots (chassis); source: short nanotubes by probe sonication
  binding result: binds

Source: PMC10516904, “Dual enzyme-powered chemotactic cross β amyloid based functional nanomotors” (Nature Communications, 2023)
